{"source": "patent US20140039042", "about": "“BISPECIFIC APTAMERS MEDIATING TUMOUR CELL LYSIS” (MERCK PATENT GMBH, published 2014)", "binders": {"B1": {"name": "bsA9 (ssDNA)", "DNA": "GGAGGGAAAAGTTATCAGGCCACTGCGGGGGTCTATACGTGAGGAAGAAGTGGGCAGGTCGATTAGTTTTGGAGTACTCGCTCCGGAGGGAAAAGTTATCAGGCTGGATGGTAGCTCGGTCGGGGTGGGTGGGTTGGCAAGTCTGATTAGTTTTGGAGTACTCGCTCC"}, "B2": {"name": "bsA22 (ssDNA)", "DNA": "CCACTGCGGGGGTCTATACGTGAGGAAGAAGTGGAAAAAAAAAAAAAAAGGAGGGAAAAGTTATCAGGCTGGATGGTAGCTCGGTCGGGGTGGGTGGGTTGGCAAGTCTGATTAGTTTTGGAGTACTCGCTCC"}, "B3": {"name": "bsA31 (ssDNA)", "DNA": "CCACTGCGGGGGTCTATACGTGAGGAAGAAGTGGGCAGGTCAAAAAAAAAAAAAAAGAGTGCGTAATGGTACGATTTGGGAAGTGGCTTGGGGTGGGATTAGTTTTGGAGTACTCGCTCC"}, "B4": {"name": "bsA10 (ssDNA)", "DNA": "GGAGGGAAAAGTTATCAGGCTGGATGGTAGCTCGGTCGGGGTGGGTGGGTTGGCAAGTCTGATTAGTTTTGGAGTACTCGCTCCGGAGGGAAAAGTTATCAGGCCACTGCGGGGGTCTATACGTGAGGAAGAAGTGGGCAGGTCGATTAGTTTTGGAGTACTCGCTCC"}, "B5": {"name": "bsA16 (ssDNA)", "DNA": "GAGTGCGTAATGGTACGATTTGGGAAGTGGCTTGGGGTGGGATTAGTTTTGGAGTACTCGCTCCGGAGGGAAAAGTTATCAGGCAGAGGGGAGGGTCGGGTATCGGCGTGTTCGGGGGATCTGCGATTAGTTTTGGAGTACTCGCTCC"}, "B6": {"name": "bsA15 (ssDNA)", "DNA": "GGAGGGAAAAGTTATCAGGCAGAGGGGAGGGTCGGGTATCGGCGTGTTCGGGGGATCTGCGATTAGTTTTGGAGTACTCGCTCCGGAGGGAAAAGTTATCAGGCTGGATGGTAGCTCGGTCGGGGTGGGTGGGTTGGCAAGTCTGATTAGTTTTGGAGTACTCGCTCC"}, "B7": {"name": "bsA21 (ssDNA)", "DNA": "CCACTGCGGGGGTCTATACGTGAGGAAGAAGTGGGCAGGTCAAAAAAAAAAAAAAAGGAGGGAAAAGTTATCAGGCTGGATGGTAGCTCGGTCGGGGTGGGTGGGTTGGCAAGTCTGATTAGTTTTGGAGTACTCGCTCC"}, "B8": {"name": "bsA3 (ssDNA)", "DNA": "CCACTGCGGGGGTCTATACGTGAGGAAGAAGTGGGCAGGTCAAAAAAAAAAAAAAAGAGTGCGTAATGGTACGATTTGGGAAGTGGCTTGGGGTGGG"}, "B9": {"name": "CLN0020 (ssDNA)", "DNA": "GGAGGGAAAAGTTATCAGGCCACTGCGGGGGTCTATACGTGAGGAAGAAGTGGGCAGGTCGATTAGTTTTGGAGTACTCGCTCC"}, "B10": {"name": "bsA19 (ssDNA)", "DNA": "CCACTGCGGGGGTCTATACGTGAGGAAGAAGTGGGCAGGTCAAAAAAAAAAAAAAAGGAGGGAAAAGTTATCAGGCTGGATGGTAGCTCGGTCGGGGTGGGTGGGTTGGCAAGTCT"}, "B11": {"name": "CLN0004 (ssDNA)", "DNA": "GGAGGGAAAAGTTATCAGGCGAGTGCGTAATGGTACGATTTGGGAAGTGGCTTGGGGTGGGATTAGTTTTGGAGTACTCGCTCC"}, "B12": {"name": "bsA11 (ssDNA)", "DNA": "CCACTGCGGGGGTCTATACGTGAGGAAGAAGTGGGCAGGTCGATTAGTTTTGGAGTACTCGCTCCGGAGGGAAAAGTTATCAGGCTGGATGGTAGCTCGGTCGGGGTGGGTGGGTTGGCAAGTCTGATTAGTTTTGGAGTACTCGCTCC"}, "B13": {"name": "bsA13 (ssDNA)", "DNA": "GAGTGCGTAATGGTACGATTTGGGAAGTGGCTTGGGGTGGGATTAGTTTTGGAGTACTCGCTCCGGAGGGAAAAGTTATCAGGCCACTGCGGGGGTCTATACGTGAGGAAGAAGTGG"}, "B14": {"name": "CLN0003 (ssDNA)", "DNA": "GGAGGGAAAAGTTATCAGGCTGGATGGTAGCTCGGTCGGGGTGGGTGGGTTGGCAAGTCTGATTAGTTTTGGAGTACTCGCTCC"}, "B15": {"name": "bsA18 (ssDNA)", "DNA": "CCACTGCGGGGGTCTATACGTGAGGAAGAAGTGGGCAGGTCATCAGGCGAGTGCGTAATGGTACGATTTGGGAAGTGGCTTGGGGTGGGATTAGTTTTGGAGTACTC"}, "B16": {"name": "bsA12 (ssDNA)", "DNA": "CCACTGCGGGGGTCTATACGTGAGGAAGAAGTGGGCAGGTCGATTAGTTTTGGAGTACTCGCTCCGGAGGGAAAAGTTATCAGGCGAGTGCGTAATGGTACGATTTGGGAAGTGGCTTGGGGTGGGATTAGTTTTGGAGTACTC"}, "B17": {"name": "bsA20 (ssDNA)", "DNA": "CCACTGCGGGGGTCTATACGTGAGGAAGAAGTGGGCAGGTCGGAGGGAAAAGTTATCAGGCTGGATGGTAGCTCGGTCGGGGTGGGTGGGTTGGCAAGTCT"}, "B18": {"name": "CLN0018 (ssDNA)", "DNA": "GGAGGGAAAAGTTATCAGGCATCACGTGGTGGGCAAATAACCGGTTGGGGTGGGTCGAGGGATTAGTTTTGGAGTACTCGCTCC"}, "B19": {"name": "CLN0123 (ssDNA)", "DNA": "GGAGGGAAAAGTTATCAGGCAGAGGGGAGGGTCGGGTATCGGCGTGTTCGGGGGATCTGCGATTAGTTTTGGAGTACTCGCTCC"}, "B20": {"name": "bsA17 (ssDNA)", "DNA": "CCACTGCGGGGGTCTATACGTGAGGAAGAAGTGGGCAGGTCGGAGGGAAAAGTTATCAGGCTGGATGGTAGCTCGGTCGGGGTGGGTGGGTTGGCAAGTCTGATTAGTTTTGGAGTACTCGCTCC"}}, "key": {"c-Met Fc fusion [1]": {"biological_target": "T1, c-Met Fc fusion (UniProt P08581 P08581:25-932)", "T1 sequence (P08581 25-932, one chain of several)": "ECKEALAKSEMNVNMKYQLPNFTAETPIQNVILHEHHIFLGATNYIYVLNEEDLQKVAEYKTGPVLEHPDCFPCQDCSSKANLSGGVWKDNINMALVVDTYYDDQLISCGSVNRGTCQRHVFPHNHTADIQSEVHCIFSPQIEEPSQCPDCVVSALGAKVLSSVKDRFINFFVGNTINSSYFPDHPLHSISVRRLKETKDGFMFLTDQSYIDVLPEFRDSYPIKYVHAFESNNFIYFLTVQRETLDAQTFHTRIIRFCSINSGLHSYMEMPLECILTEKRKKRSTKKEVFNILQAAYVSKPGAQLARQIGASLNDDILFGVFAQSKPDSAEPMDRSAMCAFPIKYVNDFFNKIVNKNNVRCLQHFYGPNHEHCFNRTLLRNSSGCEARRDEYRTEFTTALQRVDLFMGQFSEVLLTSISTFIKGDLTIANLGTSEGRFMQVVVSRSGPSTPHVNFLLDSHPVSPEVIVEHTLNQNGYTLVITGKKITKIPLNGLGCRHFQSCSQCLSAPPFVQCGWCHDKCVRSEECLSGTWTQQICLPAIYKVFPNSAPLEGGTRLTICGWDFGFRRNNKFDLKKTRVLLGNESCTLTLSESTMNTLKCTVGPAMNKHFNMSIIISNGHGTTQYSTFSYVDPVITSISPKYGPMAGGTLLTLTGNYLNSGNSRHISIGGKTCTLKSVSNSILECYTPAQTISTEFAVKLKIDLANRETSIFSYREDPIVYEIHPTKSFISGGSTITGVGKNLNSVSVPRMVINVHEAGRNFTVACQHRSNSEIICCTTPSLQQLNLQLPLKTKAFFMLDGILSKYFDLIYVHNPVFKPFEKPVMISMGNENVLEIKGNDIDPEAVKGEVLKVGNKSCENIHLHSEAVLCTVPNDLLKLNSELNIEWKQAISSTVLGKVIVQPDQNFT", "test": "filter; picomolar Kd, number only in figure", "conditions": "tags: Fc-His fusion; chain copies: 2"}, "c-Met Fc fusion [2]": {"biological_target": "T1, c-Met Fc fusion", "test": "filter; picomolar Kd, number only in figure; EMSA also shows binding", "conditions": "tags: Fc-His fusion; chain copies: 2"}, "c-Met Fc fusion [3]": {"biological_target": "T1, c-Met Fc fusion", "test": "filter; dot blot", "conditions": "tags: Fc-His fusion; chain copies: 2"}, "[4]": {"biological_target": "T2, CD16α (FcγRIIIa) V158 allotype, CD16α-6His (UniProt P08637 P08637:17-208)", "T2 sequence (P08637 17-208, one chain of several)": "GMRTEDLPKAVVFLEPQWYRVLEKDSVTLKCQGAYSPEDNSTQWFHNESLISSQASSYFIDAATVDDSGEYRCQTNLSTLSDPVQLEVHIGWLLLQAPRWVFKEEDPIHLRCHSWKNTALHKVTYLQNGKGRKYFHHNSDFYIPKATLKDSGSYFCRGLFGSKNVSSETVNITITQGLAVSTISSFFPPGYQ", "test": "filter; dot blot; allotype not specified for this assay", "conditions": "tags: 6His"}, "c-Met Fc fusion [5]": {"biological_target": "T1, c-Met Fc fusion", "test": "filter; complete loss of binding, dot blot", "conditions": "tags: Fc-His fusion; chain copies: 2"}, "c-Met Fc fusion [6]": {"biological_target": "T1, c-Met Fc fusion", "test": "filter; c-Met aptamer at 3' end performed best; dot blot", "conditions": "tags: Fc-His fusion; chain copies: 2"}, "[7]": {"biological_target": "T2, CD16α (FcγRIIIa) V158 allotype, …", "test": "filter; 45±28 nM, n=10, dot blot", "conditions": "tags: 6His"}, "CD16β (FcγRIIIb)": {"biological_target": "CD16β (FcγRIIIb) (UniProt O75015 O75015:17-200)", "sequence (O75015 17-200, one chain of several)": "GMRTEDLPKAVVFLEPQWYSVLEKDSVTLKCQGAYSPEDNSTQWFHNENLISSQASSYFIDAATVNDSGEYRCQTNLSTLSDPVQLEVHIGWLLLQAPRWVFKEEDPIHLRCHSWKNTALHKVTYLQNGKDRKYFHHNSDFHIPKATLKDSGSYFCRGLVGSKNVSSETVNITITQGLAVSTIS", "test": "filter; dot blot", "conditions": "tags: 10His"}, "c-Met Fc fusion [8]": {"biological_target": "T1, c-Met Fc fusion", "test": "filter; 11±6 nM, n=6, dot blot; FIG. 2 legend gives 57 nM; heading cites SEQ ID NO 54 but CLN0004 is SEQ 53", "conditions": "tags: Fc-His fusion; chain copies: 2"}, "c-Met Fc fusion [9]": {"biological_target": "T1, c-Met Fc fusion", "test": "filter; 91±40 pM, n=3, dot blot; heading cites SEQ ID NO 53 but CLN0003 is SEQ 52", "conditions": "tags: Fc-His fusion; chain copies: 2"}, "c-Met Fc fusion [10]": {"biological_target": "T1, c-Met Fc fusion", "test": "filter; nearly similar affinity as full length", "conditions": "tags: Fc-His fusion; chain copies: 2"}, "[11]": {"biological_target": "T2, CD16α (FcγRIIIa) V158 allotype, …", "test": "filter; 38±26 nM, n=4, dot blot; broad unspecific cell binding in FACS", "conditions": "tags: 6His"}, "[12]": {"biological_target": "T2, CD16α (FcγRIIIa) V158 allotype, …", "test": "filter; dot blot", "conditions": "tags: 6His"}, "c-Met Fc fusion [13]": {"biological_target": "T1, c-Met Fc fusion", "test": "filter; dot blot; picomolar", "conditions": "tags: Fc-His fusion; chain copies: 2"}}}
{"binder": "B1", "values": [{"measurement": "binding result", "setting": "c-Met Fc fusion [1]", "result": "binds"}]}
{"binder": "B2", "values": [{"measurement": "binding result", "setting": "c-Met Fc fusion [2]", "result": "binds"}]}
{"binder": "B3", "values": [{"measurement": "Kd", "setting": "c-Met Fc fusion [3]", "result": 92, "unit": "nM"}, {"measurement": "Kd", "setting": "[4]", "result": 24, "unit": "nM"}]}
{"binder": "B4", "values": [{"measurement": "binding result", "setting": "c-Met Fc fusion [1]", "result": "binds"}]}
{"binder": "CCACTGCGGGGGTCTATACGTGAGGAAGAAGTGG (ssDNA)", "note": "[-19CLN0020-31 (34mer, MS3)]", "values": [{"measurement": "Kd", "setting": "[4]", "result": 47, "unit": "nM"}]}
{"binder": "GAGTGCGTAATGGTACGATTTGGGAAGTGGCTTGGGGTGG (ssDNA)", "note": "[CLN0004 without flanking sequences]", "values": [{"measurement": "binding result", "setting": "c-Met Fc fusion [5]", "result": "no binding"}]}
{"binder": "B5", "values": [{"measurement": "Kd", "setting": "[4]", "result": 178, "unit": "nM"}]}
{"binder": "B6", "values": [{"measurement": "Kd", "setting": "[4]", "result": 174, "unit": "nM"}]}
{"binder": "B7", "values": [{"measurement": "binding result", "setting": "c-Met Fc fusion [1]", "result": "binds"}]}
{"binder": "B8", "values": [{"measurement": "binding result", "setting": "c-Met Fc fusion [6]", "result": "binds"}]}
{"binder": "B9", "values": [{"measurement": "Kd", "setting": "[7]", "result": 45, "unit": "nM"}, {"measurement": "binding result", "setting": "CD16β (FcγRIIIb)", "result": "no binding"}]}
{"binder": "B10", "values": [{"measurement": "binding result", "setting": "c-Met Fc fusion [6]", "result": "binds"}]}
{"binder": "B11", "values": [{"measurement": "Kd", "setting": "c-Met Fc fusion [8]", "result": 11, "unit": "nM"}]}
{"binder": "B12", "values": [{"measurement": "binding result", "setting": "c-Met Fc fusion [2]", "result": "binds"}]}
{"binder": "B13", "values": [{"measurement": "Kd", "setting": "c-Met Fc fusion [3]", "result": 18, "unit": "nM"}]}
{"binder": "B14", "values": [{"measurement": "Kd", "setting": "c-Met Fc fusion [9]", "result": 0.091, "unit": "nM"}]}
{"binder": "B15", "values": [{"measurement": "binding result", "setting": "c-Met Fc fusion [6]", "result": "binds"}]}
{"binder": "B16", "values": [{"measurement": "Kd", "setting": "c-Met Fc fusion [3]", "result": 18, "unit": "nM"}]}
{"binder": "GAGTGCGTAATGGTACGATTTGGGAAGTGGCTTGGGGTGGG (ssDNA)", "note": "[-20CLN0004-23 (41mer, MS2, with G61)]", "values": [{"measurement": "binding result", "setting": "c-Met Fc fusion [10]", "result": "binds"}]}
{"binder": "B17", "values": [{"measurement": "Kd", "setting": "c-Met Fc fusion [3]", "result": 5, "unit": "nM"}]}
{"binder": "B18", "values": [{"measurement": "binding result", "setting": "CD16β (FcγRIIIb)", "result": "no binding"}, {"measurement": "Kd", "setting": "[11]", "result": 38, "unit": "nM"}]}
{"binder": "B19", "values": [{"measurement": "binding result", "setting": "CD16β (FcγRIIIb)", "result": "no binding"}, {"measurement": "Kd", "setting": "[12]", "result": 231, "unit": "nM"}]}
{"binder": "B20", "values": [{"measurement": "Kd", "setting": "[4]", "result": 19, "unit": "nM"}, {"measurement": "Kd", "setting": "c-Met Fc fusion [13]", "result": 0.352, "unit": "nM"}]}
